Values joined by “and” are separate entries in the source; they are usually repeats but may differ in a detail not shown here. Equal values may be shown once.
Target: Sox6 HMG domain (human) (UniProt P35712)
Test: UV laser footprinting
Conditions: 10 mM Tris pH 7.4, 75 mM NaCl, 1 mM EDTA, 1 mM DTT, BSA (100 mg/mL [sic]), 0.01% NP40, 5% glycerol, 37 C, 50 nM DNA or nucleosome (Kdapp is not true Kd) …

Chain of Sox6 HMG domain (human) (P35712 618-697): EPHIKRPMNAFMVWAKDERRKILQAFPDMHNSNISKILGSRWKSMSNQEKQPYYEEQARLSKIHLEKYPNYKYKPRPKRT

Sequence	K half	other results
GCATGATTCTTAAGACCGAGTTCATCCCTTATGTGATGGACCCTATACGCGGCCGCCATCAGAATCCCGGTGCCGAGGCCGCTCAATTGGTCGTAGACAGCTCTAGCACCGCTTAAACGCACGTACGCGCTGTCCCCCGCGTTTTAACCGCCAAGGGGATTACTCCGGACAATGGAGGCACGTGTCAGATATATACATCGATGTGCATGTATTGAACAGCGACCTTGCCGGTGCCAGTCGGATAGAATTCCGGAC (double strand) [601-SHL4 naked DNA]	180 nM	
GCATGATTCTTAAGACCGAGTTCATCCCTTATGTGATGGACCCTATACGCGGCCGCCATCAGAATCCCGGTGCCGAGGCCGCTCAATTGGTCGTAGACAGCTCTAGCACCGCTTAAACGCACGTACGCGCTGTCCCCCGCGTTTTAACCGCCAAGGGGATTACTCCGGACAATGGAGGCACGTGTCAGATATATACATCGATGTGCATGTATTGAACAGCGACCTTGCCGGTGCCAGTCGGATAGAATTCCGGAC (double strand) [601-SHL4 nucleosome]		K half (apparent Kd, SHL4 site): 490 nM
GCATGATTCTTAAGACCGAGTTCATCCCTTATGTGATGGACCCTATACGCGGCCGCCATCAGAATCCCGGTGCCGAGGCCGCTCAATTGGTCGTAGACAGCTCTAGCACCGCTTAAACGCACGTAGGACAATGGAGGCGCGTTTTGGACAATGGAGGCATTACTCCGGACAATGGAGGCACGTGTCAGATATATACATCGATGTGCATGTATTGAACAGCGACCTTGCCGGTGCCAGTCGGATAGAATTCCGGAC (double strand) [601-SHL024 nucleosome]		K half (apparent Kd, SHL2 site of 3x): 550 nM; K half (apparent Kd, SHL4 site of 3x): 680 nM
GCATGATTCTTAAGACCGAGTTCATCCCTTATGTGATGGACCCTATACGCGGCCGCCATCAGAATCCCGGTGCCGAGGCCGCTCAATTGGTCGTAGACAGCTCTAGCACCGCTTAAACGCACGTAGGACAATGGAGGCGCGTTTTAACCGCCAAGGGGATTACTCCCTAGTCTCCAGGCACGTGTCAGATATATACATCGATGTGCATGTATTGAACAGCGACCTTGCCGGTGCCAGTCGGATAGAATTCCGGAC (double strand) [601-SHL0 naked DNA]	100 nM	
GCATGATTCTTAAGACCGAGTTCATCCCTTATGTGATGGACCCTATACGCGGCCGCCATCAGAATCCCGGTGCCGAGGCCGCTCAATTGGTCGTAGACAGCTCTAGCACCGCTTAAACGCACGTAGGACAATGGAGGCGCGTTTTGGACAATGGAGGCATTACTCCGGACAATGGAGGCACGTGTCAGATATATACATCGATGTGCATGTATTGAACAGCGACCTTGCCGGTGCCAGTCGGATAGAATTCCGGAC (double strand) [601-SHL024 naked DNA]	198 nM and 275 nM and 245 nM	
GCATGATTCTTAAGACCGAGTTCATCCCTTATGTGATGGACCCTATACGCGGCCGCCATCAGAATCCCGGTGCCGAGGCCGCTCAATTGGTCGTAGACAGCTCTAGCACCGCTTAAACGCACGTACGCGCTGTCCCCCGCGTTTTGGACAATGGAGGCATTACTCCCTAGTCTCCAGGCACGTGTCAGATATATACATCGATGTGCATGTATTGAACAGCGACCTTGCCGGTGCCAGTCGGATAGAATTCCGGAC (double strand) [601-SHL2 nucleosome]		K half (apparent Kd, SHL2 site): 374 nM
GCATGATTCTTAAGACCGAGTTCATCCCTTATGTGATGGACCCTATACGCGGCCGCCATCAGAATCCCGGTGCCGAGGCCGCTCAATTGGTCGTAGACAGCTCTAGCACCGCTTAAACGCACGTACGCGCTGTCCCCCGCGTTTTGGACAATGGAGGCATTACTCCCTAGTCTCCAGGCACGTGTCAGATATATACATCGATGTGCATGTATTGAACAGCGACCTTGCCGGTGCCAGTCGGATAGAATTCCGGAC (double strand) [601-SHL2 naked DNA]	136 nM	
